Publication doi:10.1101/2023.06.06.543836

Target: CXCL12 (chemokine (C-X-C motif) ligand 12) (UniProt P48061)
Test: NMR titration

CXCL12 (chemokine (C-X-C motif) ligand 12), sequence (P48061 22-89): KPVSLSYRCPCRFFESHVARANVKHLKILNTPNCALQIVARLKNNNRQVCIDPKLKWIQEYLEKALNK

Kd: 200 nM
Substance: Ac-pep (synthetic peptide corresponding to the HMGB1 acidic IDR) (from UniProt P63158 186-214)
